Results reported in the nanobody polyreactivity screen of Harvey et al. (2022).

test: yeast display, Sf9 membrane polyspecificity reagent, FACS + sequencing; frameworks hold sequencing errors
Outline: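 Nanobodies from a synthetic yeast display library (Saccharomyces cerevisiae BJ5465), induced 36–48 hours with galactose, were stained 1 hour at 4 °C with 10% biotinylated, detergent-solubilized Sf9 membrane reagent, enriched on streptavidin microbeads, then FACS-sorted. Anti-HA (expression) and streptavidin (reagent binding) fluorescence set low and high (top ~1%) gates. Polyreactivity labels come from the gate of origin. Genes were colony-PCR amplified, MiSeq 2 × 250 sequenced and filtered by CDR length.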

| Sequence | polyreactivity (PSR sort gate) |
| --- | --- |
| QVQLVESGGGLVQAGGSLRLSCAASGLILYWYAMGWYRQAPGKERELVAAISISGGSTYYADSVKGRFTISRDNAKNTVYLQMNSLKPEDTAVYYCAAVYFYSWEGDGDYWGQGTQVTVSS | low polyreactivity |
| QVQLVESGGGLVQAGGSLRLSCAASGLILYYYDMGWYRQAPGKERELVAAISWNGDDTYYADSVKGRFTISRDNAKNTVYLQMNSLKPEDTAVYYCAAEGPPQTDDYWGQATQVTVSS | high polyreactivity |
| QVQLVESGGGLVQAGGSLRLSCAASGLISIFYTMGWYRQAPGKERELVAAITSGGSSTYYADSVKGRFTISRDNAKNTVYLQMNCLIPVDTAVYYCAAEPGFYYYWGQGTQVTVSS | low polyreactivity |
| QVQLVESGGGLVQAGGSLRLSCAASGLISWLYVMGWYRQAPGKERELVAAIRYSGGRTYYADSVKGRFTISRDNAKNTVYLQMNSLKPEDTAVYYCAAEEQVVKAHGDYWGQGTQVTVSS | low polyreactivity |
| QVQLVESGGGLVQAGGSLRLSCAASGLIVGGYTMGWYRQAPGKERELVAAIDSGGSTKYADSVKGRFTISRDNAKNTVYLQMNSLKPEDTAVYYCAARDYYAWRYRYHHEVSEFDYWGQGTQVTVSS | low polyreactivity |
| QVQLVESGGGLVQAGGSLRLSCAASGLIYWYAMGWYRQAPGKERELVAAISSNGGSTYYADSVKGRFTISRDNAKNTVYLQMNSLKPEDTAVYYCAAEDYYIYREPYDYWGQGTQVTVSS | low polyreactivity |
| QVQLVESGGGLVQAGGSLRLSCAASGLIYYRNAMGWYRQAPGKERELVAAISSDGSTYYADSVKGRFTISRDNPKNTVYLQMNSLKAEDTAVFYCAADYREFDAYGAARTLDFDYWGQGTQVTVSS | low polyreactivity |
| QVQLVESGGGLVQAGGSLRLSCAASGLIYYRYAMGWYRQAPGKERELVAAITTNGARTYYADSVKGRFTISRDNAKNTVYLQMNSLKPEDTAVYYCAAYGAGKFWAEHNYWGQGTQVTVSS | high polyreactivity |
| QVQLVESGGGLVQAGGSLRLSCAASGLNFVQYVMGWYRQATGKERELVAAITDDGNTYYADSVKGRFTISRDNAKNTVYLQMNSLKPEDTEVYYCNAVLRSYDFWPGYGYWGQGTQVTVSS | low polyreactivity |
| QVQLVESGGGLVQAGGSLRLSCAASGLNFWLNAMGWYRQAPGKERELVAAISRGGSTNYADSVKGRFTNSRDNAKNTVYLQMNSLKPEDTAVYYCAAGSRRAACYDYSYPYGYWGQGSQVTVSS | high polyreactivity |
| QVQLVESGGGLVQAGGSLRLSCAASGLPFRFNALGWNRQAPGKERELVARISAGGGSTYYADSVKGRFTISRDNAKNTVYLQMNSLKPEDTAVYYCAVDKSTEFSSGPHVAGDDSWGQGTQVTVSS | low polyreactivity |
| QVQLVESGGGLVQAGGSLRLSCAASGLSSGFNVMGWYRQAPGKERELVAAIRSTGSPKYADSVKGRFTISRDNAKNTVYLQMNSLKPEDTAVYYCFRYSFYLNYWGQGTQVTVSS | high polyreactivity |
| QVQLVESGGGLVQAGGSLRLSCAASGLTCTRNAMGWYRQAPGKEREFVAAIRWSAGSTYYADSVKGRFTISRDNAKNTVYLQMNSLTPEDTAVSYCNAALNVSGHYPNDYWGQGTQVTVSS | low polyreactivity |
| QVQLVESGGGLVQAGGSLRLSCAASGLTFADYAMGWYRQAPGKERELVAAISRRGGSTYYADSVKGRFTISRDNAKNTVYLQMNSLKPEDTAVYYCAAYAYDVAFKRYKFDYWGQGTQVTVSS | high polyreactivity |
| QVQLVESGGGLVQAGGSLRLSCAASGLTFAGYAMGWYRQAPGKERELVAAITYSTGRTYYADSVKGRFTISRDNAKTTVYFQMNSLKPEDTAVYYCAALLRGQDRTMDYWGQGTQVTVSS | high polyreactivity |
| QVQLVESGGGLVQAGGSLRLSCAASGLTFASYAMGWYRQAPGKERELVAAISSSGRTYYADSVKGRFTISRDNAKNTVYLQMNSLKPEDTAVYYCATRGLSRYYDYYYWGQGTQVTVSS | high polyreactivity |
| QVQLVESGGGLVQAGGSLRLSCAASGLTFASYAMGWYRQAPGKERELVARISRSGGSTYYADSVKGRFTISRDNAKNTVYLQMNSLKPEDTAVYYCAADYIFRRYPVGGIYDYDYWGQGTQVTVSS | high polyreactivity |
